The values that follow come from PMC9923923 (2023).

In one assay the target is TLR4 (Homo sapiens, UniProt O00206). Nature of the assay: SPR. (In general: Surface plasmon resonance follows binding to a sensor surface in real time, without labels.)
The next assay addresses TLR4/MD2 complex (Homo sapiens, UniProt O00206). Description: SPR.

TLR4, sequence (O00206 24-839): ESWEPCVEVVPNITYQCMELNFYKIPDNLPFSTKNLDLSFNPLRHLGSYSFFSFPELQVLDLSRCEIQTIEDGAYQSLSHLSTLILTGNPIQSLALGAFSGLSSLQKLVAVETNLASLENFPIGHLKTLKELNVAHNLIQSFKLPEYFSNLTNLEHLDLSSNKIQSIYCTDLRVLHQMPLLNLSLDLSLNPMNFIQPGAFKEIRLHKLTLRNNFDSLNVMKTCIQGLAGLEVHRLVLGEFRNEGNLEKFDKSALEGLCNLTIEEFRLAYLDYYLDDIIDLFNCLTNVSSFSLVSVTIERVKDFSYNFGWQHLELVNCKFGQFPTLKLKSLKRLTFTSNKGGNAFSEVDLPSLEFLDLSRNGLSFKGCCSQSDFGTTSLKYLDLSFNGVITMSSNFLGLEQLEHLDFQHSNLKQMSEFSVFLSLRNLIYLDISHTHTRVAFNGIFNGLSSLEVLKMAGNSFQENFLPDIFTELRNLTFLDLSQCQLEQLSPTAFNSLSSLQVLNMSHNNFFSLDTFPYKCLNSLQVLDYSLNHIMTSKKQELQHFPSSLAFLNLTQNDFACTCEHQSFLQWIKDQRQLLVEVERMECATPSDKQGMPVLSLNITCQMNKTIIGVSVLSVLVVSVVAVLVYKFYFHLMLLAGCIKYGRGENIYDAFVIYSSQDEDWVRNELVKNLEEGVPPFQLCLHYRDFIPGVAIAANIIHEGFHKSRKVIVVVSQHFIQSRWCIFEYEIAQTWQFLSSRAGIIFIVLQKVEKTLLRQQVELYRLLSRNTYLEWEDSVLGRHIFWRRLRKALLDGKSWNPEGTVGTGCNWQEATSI
TLR4/MD2 complex, sequence (O00206 24-839, chain 1 of 2): as the sequence (O00206 24-839) above
TLR4/MD2 complex, sequence (chain, as listed by the source, chain 2 of 2): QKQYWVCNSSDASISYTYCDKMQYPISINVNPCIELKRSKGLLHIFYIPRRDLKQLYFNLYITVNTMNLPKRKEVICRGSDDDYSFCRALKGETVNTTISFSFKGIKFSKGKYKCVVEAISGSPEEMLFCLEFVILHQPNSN

B1: eCIRP (protein)
chain: MASDEGKLFVGGLSFDTNEQALEQVFSKYGQISEVVVVKDRETQRSRGFGFVTFENIDDAKDAMMAMNGKSVDGRQIRVDQAGKSSDNRSRGYRGGSAGGRGFFRGGRSRGRGFSRGGGDRGYGGGRFESRSGGYGGSRDYYASRSQGGSYGYRSSGGSYRDSYDSYATHNE
modifications: 5 nM PS-OMe miR130 (value in text)
Turning to B1, the Kd (commonly the constant that tells how readily two partners part at equilibrium) with TLR4 was found to be 612 nM.

B2: eCIRP (protein)
chain: MASDEGKLFVGGLSFDTNEQALEQVFSKYGQISEVVVVKDRETQRSRGFGFVTFENIDDAKDAMMAMNGKSVDGRQIRVDQAGKSSDNRSRGYRGGSAGGRGFFRGGRSRGRGFSRGGGDRGYGGGRFESRSGGYGGSRDYYASRSQGGSYGYRSSGGSYRDSYDSYATHNE
modifications: 5 nM PS-OMe miR130
B2 displayed a Kd with TLR4/MD2 complex of 113 nM.

B3: eCIRP (protein)
chain: MASDEGKLFVGGLSFDTNEQALEQVFSKYGQISEVVVVKDRETQRSRGFGFVTFENIDDAKDAMMAMNGKSVDGRQIRVDQAGKSSDNRSRGYRGGSAGGRGFFRGGRSRGRGFSRGGGDRGYGGGRFESRSGGYGGSRDYYASRSQGGSYGYRSSGGSYRDSYDSYATHNE
Turning to B3, the Kd in the assay with TLR4/MD2 complex came to 20 nM; with TLR4, 69.7 nM.

B4: eCIRP (protein)
chain: MASDEGKLFVGGLSFDTNEQALEQVFSKYGQISEVVVVKDRETQRSRGFGFVTFENIDDAKDAMMAMNGKSVDGRQIRVDQAGKSSDNRSRGYRGGSAGGRGFFRGGRSRGRGFSRGGGDRGYGGGRFESRSGGYGGSRDYYASRSQGGSYGYRSSGGSYRDSYDSYATHNE
modifications: 5 nM PS-OMe miR130 (value in legend)
B4 returned a Kd with TLR4 of 139 nM.
